Experimental data reported in publication doi:10.1101/2021.03.07.433908 (bioRxiv, 2021).

Target: the molecule itself
Assay: pulsed field gradient diffusion NMR

B1: Human αB-crystallin (natural protein)
chain: MDIAIHHPWIRRPFFPFHSPSRLFDQFFGEHLLESDLFPTSTSLSPFYLRPPSFLRAPSWFDTGLSEMRLEKDRFSVNLDVKHFSPEELKVKVLGDVIEVHGKHEERQDEHGFISREFHRKYRIPADVDPLTITSSLSSDGVLTVNGPRKQVSGPERTIPITREEKPAVTAAPKK
modifications: 15N labelled (HSQC spectra); 2H/13CH3 Ile δ1, Val γ1/γ2, Leu δ1/δ2 labelled (binding studies and diffusion analyses)
  stoichiometry N: 28
